B1: NRC3_wobSeed58_DR2_G14A_o1 (dsDNA)
DNA 1: GCATCGAAAGGTCATGAGGTGAGTATACAGAAAGGCGCGATTGACAGCGTAGAATGAAGG
DNA 2: CCTTCATTCTACGCTGTCAATCGCGCCTTTCTGTATACTCACCTCATGACCTTTCGATGC
B2: NRC3_wobSeed5_DR0_C8G_o1 (dsDNA)
DNA 1: GCCCTTAGGGGTCAAGGTTATAGCACGGGTGGTACGGCGATTGACAGCGTAGAATGAAGG
DNA 2: CCTTCATTCTACGCTGTCAATCGCCGTACCACCCGTGCTATAACCTTGACCCCTAAGGGC
B3: NRC3_random_hg19_33_o1 (dsDNA)
DNA 1: GCATCTGCATAGAGCTAGAGCTATTGATTCAAAGAGGCGATTGACAGCGTAGAATGAAGG
DNA 2: CCTTCATTCTACGCTGTCAATCGCCTCTTTGAATCAATAGCTCTAGCTCTATGCAGATGC
B4: NRC3_wobSeed49_DR2_G16A_o1 (dsDNA)
DNA 1: GCCAAACTAGGTCAAAAGGTCAAAGTCCGCTTCCCGGCGATTGACAGCGTAGAATGAAGG
DNA 2: CCTTCATTCTACGCTGTCAATCGCCGGGAAGCGGACTTTGACCTTTTGACCTAGTTTGGC
B5: NRC3_wobSeed53_DR2_T21C_o1 (dsDNA)
DNA 1: GCCCTTACGGGTCACGAGGTCATAGCACGACGAGCGGCGATTGACAGCGTAGAATGAAGG
DNA 2: CCTTCATTCTACGCTGTCAATCGCCGCTCGTCGTGCTATGACCTCGTGACCCGTAAGGGC
B6: NRC3_random_hg19_155_o1 (dsDNA)
DNA 1: GCGAGTGCTATGCTTGCTTTCTATCTCATACAGTATGCGATTGACAGCGTAGAATGAAGG
DNA 2: CCTTCATTCTACGCTGTCAATCGCATACTGTATGAGATAGAAAGCAAGCATAGCACTCGC
B7: NRC3_wobSeed85_DR3_G15T_o1 (dsDNA)
DNA 1: GCCGTCCAAGGTCATAGAGGTCAGTGAATGCCGAGTGCGATTGACAGCGTAGAATGAAGG
DNA 2: CCTTCATTCTACGCTGTCAATCGCACTCGGCATTCACTGACCTCTATGACCTTGGACGGC
B8: NRC3_random_hg19_64_o1 (dsDNA)
DNA 1: GCAATCCAATTGGAGGTGCACTCGTCTAAGTGGTCCGCGATTGACAGCGTAGAATGAAGG
DNA 2: CCTTCATTCTACGCTGTCAATCGCGGACCACTTAGACGAGTGCACCTCCAATTGGATTGC
B9: NRC3_wobSeed89_DR3_G16A_o1 (dsDNA)
DNA 1: GCCTATGTAGGTTAAAGGGGTCATTCAGTTTGAAAGGCGATTGACAGCGTAGAATGAAGG
DNA 2: CCTTCATTCTACGCTGTCAATCGCCTTTCAAACTGAATGACCCCTTTAACCTACATAGGC
B10: NRC3_wobSeed99_DR4_T22G_o1 (dsDNA)
DNA 1: GCTCTCGGAGGACACGAAAGGGCAGAGCTCGACATCGCGATTGACAGCGTAGAATGAAGG
DNA 2: CCTTCATTCTACGCTGTCAATCGCGATGTCGAGCTCTGCCCTTTCGTGTCCTCCGAGAGC
B11: NRC3_wobSeed124_DR5_C12T_o1 (dsDNA)
DNA 1: GCCCTACTGGGTCATTCAGAGGTCATTGATCATATGGCGATTGACAGCGTAGAATGAAGG
DNA 2: CCTTCATTCTACGCTGTCAATCGCCATATGATCAATGACCTCTGAATGACCCAGTAGGGC
B12: NRC3_random_hg19_341_o1 (dsDNA)
DNA 1: GCCCCAGATGACGGGTTGATATGGGCAGCAAACCGCGCGATTGACAGCGTAGAATGAAGG
DNA 2: CCTTCATTCTACGCTGTCAATCGCGCGGTTTGCTGCCCATATCAACCCGTCATCTGGGGC
B13: NRC3_random_hg19_186_o1 (dsDNA)
DNA 1: GCTTTCGTTACTGTAGCCTTGTAGTATAGTTTGAAGGCGATTGACAGCGTAGAATGAAGG
DNA 2: CCTTCATTCTACGCTGTCAATCGCCTTCAAACTATACTACAAGGCTACAGTAACGAAAGC
B14: NRC3_random_hg19_58_o1 (dsDNA)
DNA 1: GCAAGACTCCTGGCTCTGATTCTAAACTAAACATAGGCGATTGACAGCGTAGAATGAAGG
DNA 2: CCTTCATTCTACGCTGTCAATCGCCTATGTTTAGTTTAGAATCAGAGCCAGGAGTCTTGC
B15: NRC3_wobSeed72_DR2_C25G_o1 (dsDNA)
DNA 1: GCTCGAGTAGGTTACGGGGGCATTGAGGGATGAAGAGCGATTGACAGCGTAGAATGAAGG
DNA 2: CCTTCATTCTACGCTGTCAATCGCTCTTCATCCCTCAATGCCCCCGTAACCTACTCGAGC
B16: NRC3_wobSeed130_DR5_G22A_o1 (dsDNA)
DNA 1: GCCTCGAAAGGTCGTGCTCAGATGAGTATACCAAACGCGATTGACAGCGTAGAATGAAGG
DNA 2: CCTTCATTCTACGCTGTCAATCGCGTTTGGTATACTCATCTGAGCACGACCTTTCGAGGC
B17: NRC3_random_hg19_49_o1 (dsDNA)
DNA 1: GCACAGAAGGTAGCAAAGTAATCATGCTAGTGGTCAGCGATTGACAGCGTAGAATGAAGG
DNA 2: CCTTCATTCTACGCTGTCAATCGCTGACCACTAGCATGATTACTTTGCTACCTTCTGTGC
B18: NRC3_random_hg19_212_o1 (dsDNA)
DNA 1: GCAAGCATCCAGGACAAGGAAAGAGTAATCAATGGCGCGATTGACAGCGTAGAATGAAGG
DNA 2: CCTTCATTCTACGCTGTCAATCGCGCCATTGATTACTCTTTCCTTGTCCTGGATGCTTGC
B19: NRC3_random_hg19_112_o1 (dsDNA)
DNA 1: GCATCTGGCATATGTTCACTCCATGTACCACAGATAGCGATTGACAGCGTAGAATGAAGG
DNA 2: CCTTCATTCTACGCTGTCAATCGCTATCTGTGGTACATGGAGTGAACATATGCCAGATGC

These binders were tested against RARb:RXRa (Homo sapiens, UniProt P10826;P19793 full;full) (assay: no ligand; PBM; 270 nM : 90 nM RXRa; PBS pH 7.4, 2% milk, 0.02% Triton X-100, 1 mM DTT, BSA, 0.4 mg/ml salmon testes DNA). Settings: tags: His kept;His cleaved; copies: 1;1; label: surface-attached array probe.
How it was run: (§1)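 On custom Agilent 4×180K arrays, double-stranded probes with 34-nt variable regions carried direct-repeat seeds, single-nucleotide variants, half-site ablations or random human genomic background. Ligand-free nuclear receptor dimers were applied for 1 h, and binding was read with antibodies against each partner (one per run). Binding z-scores come from regression-normalized fluorescence, with the random background probes as reference.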

RARb:RXRa, sequence (P10826 whole entry, chain 1 of 2): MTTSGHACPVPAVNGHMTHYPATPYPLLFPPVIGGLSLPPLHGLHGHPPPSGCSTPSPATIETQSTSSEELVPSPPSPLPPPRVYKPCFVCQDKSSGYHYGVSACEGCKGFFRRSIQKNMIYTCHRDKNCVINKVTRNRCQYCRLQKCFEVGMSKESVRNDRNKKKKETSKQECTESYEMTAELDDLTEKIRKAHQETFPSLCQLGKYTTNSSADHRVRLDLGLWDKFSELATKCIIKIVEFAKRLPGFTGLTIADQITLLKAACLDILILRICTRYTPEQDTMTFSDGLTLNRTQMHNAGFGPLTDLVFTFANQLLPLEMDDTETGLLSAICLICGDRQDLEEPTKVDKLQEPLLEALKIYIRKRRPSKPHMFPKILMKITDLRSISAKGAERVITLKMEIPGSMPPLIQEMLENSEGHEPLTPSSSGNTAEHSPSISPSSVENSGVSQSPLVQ
RARb:RXRa, sequence (P19793 whole entry, chain 2 of 2): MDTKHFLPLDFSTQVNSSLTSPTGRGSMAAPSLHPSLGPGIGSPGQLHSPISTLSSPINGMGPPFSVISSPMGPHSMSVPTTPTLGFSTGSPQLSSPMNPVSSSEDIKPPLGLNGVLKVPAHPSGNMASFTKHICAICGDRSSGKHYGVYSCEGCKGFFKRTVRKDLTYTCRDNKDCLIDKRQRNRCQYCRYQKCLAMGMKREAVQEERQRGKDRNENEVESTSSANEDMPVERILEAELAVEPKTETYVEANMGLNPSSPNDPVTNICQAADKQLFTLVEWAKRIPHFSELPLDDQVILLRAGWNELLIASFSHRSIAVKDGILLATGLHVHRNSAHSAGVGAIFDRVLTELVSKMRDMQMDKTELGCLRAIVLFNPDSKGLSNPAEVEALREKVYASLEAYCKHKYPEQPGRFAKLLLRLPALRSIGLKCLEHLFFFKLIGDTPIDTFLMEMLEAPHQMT

Going from B1 to B2, the binding signal falls from 6.03 PBM z-score against 500 random probes to 5.75 PBM z-score against 500 random probes.

Going from B3 to B4, the binding signal rises from -1.35 PBM z-score against 500 random probes to 6 PBM z-score against 500 random probes.

The binders below were run against PPARa:RXRa (Homo sapiens, UniProt Q07869;P19793 full;full) in the same assay as above. Settings: tags: GST kept;His cleaved; copies: 1;1; label: surface-attached array probe.
How it was run: as §1

Going from B1 to B5, the binding signal falls from 6.95 PBM z-score against 500 random probes to 6.48 PBM z-score against 500 random probes.

Going from B6 to B2, the binding signal rises from -0.78 PBM z-score against 500 random probes to 6.97 PBM z-score against 500 random probes.

With B4 the binding signal was 7.14 PBM z-score against 500 random probes.

These binders were tested against PXR:RXRa (Homo sapiens, UniProt O75469;P19793 full;full) in the same assay as above. Settings: tags: His kept;His cleaved; copies: 1;1; label: surface-attached array probe.
How it was run: as §1

First: B7
Second: B8
The binding signal of the first is higher: 6.83 PBM z-score against 500 random probes for the first, -0.06 PBM z-score against 500 random probes for the second.

Going from B9 to B5, the binding signal falls from 6.77 PBM z-score against 500 random probes to 6.58 PBM z-score against 500 random probes.

Going from B10 to B11, the binding signal rises from 0.23 PBM z-score against 500 random probes to 6.43 PBM z-score against 500 random probes.

First: B12
Second: B13
The binding signal of the first is lower: -0.3 PBM z-score against 500 random probes for the first, 0.22 PBM z-score against 500 random probes for the second.

First: B3
Second: B14
The binding signal of the first is lower: -1.09 PBM z-score against 500 random probes for the first, -0.84 PBM z-score against 500 random probes for the second.

In the case of B15, the binding signal is reported as 3.09 PBM z-score against 500 random probes.

These binders were tested against RARg:RXRa (Homo sapiens, UniProt P13631;P19793 full;full) in the same assay as above. Settings: tags: His kept;His cleaved; copies: 1;1; label: surface-attached array probe.
How it was run: as §1

Going from B1 to B5, the binding signal falls from 7.79 PBM z-score against 500 random probes to 7.59 PBM z-score against 500 random probes.

Going from B11 to B6, the binding signal falls from 8.13 PBM z-score against 500 random probes to -0.56 PBM z-score against 500 random probes.

Compared with B2, B4 is higher in binding signal: 7.74 PBM z-score against 500 random probes for the first, 8.94 PBM z-score against 500 random probes for the second.

Each binder was assayed against FXR:RXRa (Homo sapiens, UniProt Q96RI1;P19793 full;full) in the same assay as above. Settings: tags: His kept;His cleaved; copies: 1;1; label: surface-attached array probe.
How it was run: as §1

Going from B1 to B7, the binding signal falls from 8.53 PBM z-score against 500 random probes to 7.72 PBM z-score against 500 random probes.

Compared with B5, B2 is higher in binding signal: 8.01 PBM z-score against 500 random probes for the first, 8.51 PBM z-score against 500 random probes for the second.

Each binder was assayed against LXRb:RXRa (Homo sapiens, UniProt P55055;P19793 full;full) in the same assay as above. Settings: tags: His kept;His cleaved; copies: 1;1; label: surface-attached array probe.
How it was run: as §1

LXRb:RXRa, sequence (P55055 whole entry, chain 1 of 2): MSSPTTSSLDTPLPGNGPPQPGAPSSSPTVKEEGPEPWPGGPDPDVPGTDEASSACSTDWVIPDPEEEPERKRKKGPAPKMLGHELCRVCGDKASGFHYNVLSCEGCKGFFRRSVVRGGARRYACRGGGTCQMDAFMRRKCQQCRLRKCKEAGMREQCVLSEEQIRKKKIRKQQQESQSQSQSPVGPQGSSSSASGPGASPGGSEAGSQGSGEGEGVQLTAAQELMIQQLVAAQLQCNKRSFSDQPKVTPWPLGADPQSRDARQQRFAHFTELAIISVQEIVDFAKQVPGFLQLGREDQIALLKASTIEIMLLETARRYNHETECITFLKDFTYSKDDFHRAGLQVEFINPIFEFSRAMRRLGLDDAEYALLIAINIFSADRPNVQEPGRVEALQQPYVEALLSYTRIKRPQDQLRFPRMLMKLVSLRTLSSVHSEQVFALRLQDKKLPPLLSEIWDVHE
LXRb:RXRa, sequence (P19793 whole entry, chain 2 of 2): as the sequence (P19793 whole entry, chain 2 of 2) above

Going from B1 to B6, the binding signal falls from 5.92 PBM z-score against 500 random probes to -0.78 PBM z-score against 500 random probes.

Going from B2 to B4, the binding signal rises from 5.92 PBM z-score against 500 random probes to 6.34 PBM z-score against 500 random probes.

Each binder was assayed against RARa:RXRa (Homo sapiens, UniProt P10276;P19793 full;full) in the same assay as above. Settings: tags: His kept;His cleaved; copies: 1;1; label: surface-attached array probe.
How it was run: as §1

RARa:RXRa, sequence (P10276 whole entry, chain 1 of 2): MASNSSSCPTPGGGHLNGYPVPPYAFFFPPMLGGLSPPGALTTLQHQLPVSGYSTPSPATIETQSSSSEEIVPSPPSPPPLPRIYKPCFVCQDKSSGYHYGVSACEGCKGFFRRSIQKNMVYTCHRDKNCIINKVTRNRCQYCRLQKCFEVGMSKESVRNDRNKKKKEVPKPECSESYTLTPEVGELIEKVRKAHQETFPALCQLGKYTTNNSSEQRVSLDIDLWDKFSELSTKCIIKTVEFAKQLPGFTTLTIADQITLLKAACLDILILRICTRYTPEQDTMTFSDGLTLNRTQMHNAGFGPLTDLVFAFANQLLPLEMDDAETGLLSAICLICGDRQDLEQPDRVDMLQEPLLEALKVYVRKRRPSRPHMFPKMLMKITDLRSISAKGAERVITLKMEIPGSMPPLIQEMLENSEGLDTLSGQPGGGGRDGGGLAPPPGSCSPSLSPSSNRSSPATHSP
RARa:RXRa, sequence (P19793 whole entry, chain 2 of 2): as the sequence (P19793 whole entry, chain 2 of 2) above

First: B1
Second: B16
The binding signal of the first is higher: 7.09 PBM z-score against 500 random probes for the first, 3.27 PBM z-score against 500 random probes for the second.

Compared with B7, B8 is lower in binding signal: 7.13 PBM z-score against 500 random probes for the first, -0.24 PBM z-score against 500 random probes for the second.

Compared with B9, B5 is higher in binding signal: 7.03 PBM z-score against 500 random probes for the first, 8.05 PBM z-score against 500 random probes for the second.

Compared with B17, B18 is higher in binding signal: -0.41 PBM z-score against 500 random probes for the first, -0.03 PBM z-score against 500 random probes for the second.

Compared with B10, B11 is higher in binding signal: 0.47 PBM z-score against 500 random probes for the first, 7.55 PBM z-score against 500 random probes for the second.

Going from B12 to B13, the binding signal rises from -0.22 PBM z-score against 500 random probes to 0.29 PBM z-score against 500 random probes.

Going from B6 to B2, the binding signal rises from -1.16 PBM z-score against 500 random probes to 7.21 PBM z-score against 500 random probes.

First: B3
Second: B14
The binding signal of the first is lower: -1.05 PBM z-score against 500 random probes for the first, -0.89 PBM z-score against 500 random probes for the second.

First: B19
Second: B15
The binding signal of the first is lower: -0.07 PBM z-score against 500 random probes for the first, 3.03 PBM z-score against 500 random probes for the second.

B4 was tested, and the binding signal was 8.77 PBM z-score against 500 random probes.

These binders were tested against VDR:RXRa (Homo sapiens, UniProt P11473;P19793 full;full) in the same assay as above. Settings: tags: His kept;His cleaved; copies: 1;1; label: surface-attached array probe.
How it was run: as §1

VDR:RXRa, sequence (P11473 whole entry, chain 1 of 2): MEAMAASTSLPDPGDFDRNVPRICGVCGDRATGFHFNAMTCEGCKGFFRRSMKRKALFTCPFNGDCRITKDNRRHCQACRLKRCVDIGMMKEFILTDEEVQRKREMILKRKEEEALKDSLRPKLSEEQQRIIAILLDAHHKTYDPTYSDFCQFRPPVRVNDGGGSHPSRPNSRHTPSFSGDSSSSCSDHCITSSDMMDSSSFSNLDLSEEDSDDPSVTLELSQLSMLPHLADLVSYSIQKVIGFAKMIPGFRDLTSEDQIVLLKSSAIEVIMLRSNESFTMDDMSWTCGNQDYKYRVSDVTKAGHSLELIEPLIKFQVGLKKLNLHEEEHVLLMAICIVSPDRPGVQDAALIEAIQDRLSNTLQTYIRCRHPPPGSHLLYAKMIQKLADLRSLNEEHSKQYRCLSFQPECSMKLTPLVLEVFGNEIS
VDR:RXRa, sequence (P19793 whole entry, chain 2 of 2): as the sequence (P19793 whole entry, chain 2 of 2) above

First: B7
Second: B9
The binding signal of the first is lower: 7.93 PBM z-score against 500 random probes for the first, 8.06 PBM z-score against 500 random probes for the second.

Compared with B5, B18 is lower in binding signal: 6.6 PBM z-score against 500 random probes for the first, 0.09 PBM z-score against 500 random probes for the second.

The binders below were run against LXRa:RXRa (Homo sapiens, UniProt Q13133;P19793 full;full) in the same assay as above. Settings: tags: His kept;His cleaved; copies: 1;1; label: surface-attached array probe.
How it was run: as §1

Compared with B1, B16 is lower in binding signal: 6.98 PBM z-score against 500 random probes for the first, 3.83 PBM z-score against 500 random probes for the second.

Going from B17 to B18, the binding signal rises from -0.5 PBM z-score against 500 random probes to -0.29 PBM z-score against 500 random probes.

Going from B6 to B2, the binding signal rises from -0.77 PBM z-score against 500 random probes to 6.63 PBM z-score against 500 random probes.

Compared with B19, B4 is higher in binding signal: -0.28 PBM z-score against 500 random probes for the first, 7.1 PBM z-score against 500 random probes for the second.

Each binder was assayed against RXRa (Homo sapiens, UniProt P19793) (assay: no ligand; PBM; 180 nM; PBS pH 7.4, 2% milk, 0.02% Triton X-100, 1 mM DTT, BSA, 0.4 mg/ml salmon testes DNA). Settings: tags: His cleaved; chain copies: 2; label: surface-attached array probe.
RXRa, sequence (P19793 whole entry): as the sequence (P19793 whole entry, chain 2 of 2) above

Compared with B1, B5 is lower in binding signal: 8.9 PBM z-score against 500 random probes for the first, 8.57 PBM z-score against 500 random probes for the second.

First: B2
Second: B4
The binding signal of the first is higher: 9.14 PBM z-score against 500 random probes for the first, 9.09 PBM z-score against 500 random probes for the second.

— PMC6555819, “Comprehensive study of nuclear receptor DNA binding provides a revised framework for understanding receptor specificity”
